Results as given in patent US20170355769A1 (AbbVie / Abbott, published 2017).

Columns and labels:
[1] = biological target: T1, Human full length B7-H3 (human, UniProt Q5ZPR3 29-534); experiment: cell-based or functional assay
T1 sequence: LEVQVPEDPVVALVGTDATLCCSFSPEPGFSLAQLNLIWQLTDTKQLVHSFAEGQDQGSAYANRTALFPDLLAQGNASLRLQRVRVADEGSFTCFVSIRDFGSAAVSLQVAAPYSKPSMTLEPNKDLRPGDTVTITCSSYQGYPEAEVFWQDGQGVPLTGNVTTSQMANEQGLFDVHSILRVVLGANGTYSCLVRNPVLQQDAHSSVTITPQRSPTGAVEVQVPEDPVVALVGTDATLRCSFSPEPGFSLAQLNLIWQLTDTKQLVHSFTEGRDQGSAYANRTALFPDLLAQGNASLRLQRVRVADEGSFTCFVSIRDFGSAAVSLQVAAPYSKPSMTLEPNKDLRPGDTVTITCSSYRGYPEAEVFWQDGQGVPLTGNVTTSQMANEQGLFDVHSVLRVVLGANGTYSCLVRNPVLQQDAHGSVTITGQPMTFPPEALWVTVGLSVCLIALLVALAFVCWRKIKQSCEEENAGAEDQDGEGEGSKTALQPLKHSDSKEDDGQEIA

[2] = biological target: T2, Human B7-H3-ECD (His tag) (human, UniProt Q5ZPR3 29-461); experiment: SPR, mAb captured, ECD analyte
T2 construct: SPR analyte; also called huB7-H3; soluble ECD of human B7-H3
T2 sequence: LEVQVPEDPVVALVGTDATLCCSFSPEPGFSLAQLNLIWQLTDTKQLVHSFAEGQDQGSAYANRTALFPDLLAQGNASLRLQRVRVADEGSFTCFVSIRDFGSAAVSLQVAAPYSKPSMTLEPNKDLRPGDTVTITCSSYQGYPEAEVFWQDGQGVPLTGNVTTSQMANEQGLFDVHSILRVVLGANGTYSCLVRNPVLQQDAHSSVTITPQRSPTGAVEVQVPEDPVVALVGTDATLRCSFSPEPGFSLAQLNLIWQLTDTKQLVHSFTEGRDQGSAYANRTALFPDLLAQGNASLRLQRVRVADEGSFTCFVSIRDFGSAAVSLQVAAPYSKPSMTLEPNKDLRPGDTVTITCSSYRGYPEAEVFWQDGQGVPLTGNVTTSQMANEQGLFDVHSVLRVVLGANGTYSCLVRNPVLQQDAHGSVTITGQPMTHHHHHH

[3] = biological target: T3, Cyno B7-H3-ECD (his tag) (cynomolgus); experiment: SPR, mAb captured, ECD analyte
T3 construct: SPR analyte; also called soluble ECD of cyno B7-H3
T3 chain: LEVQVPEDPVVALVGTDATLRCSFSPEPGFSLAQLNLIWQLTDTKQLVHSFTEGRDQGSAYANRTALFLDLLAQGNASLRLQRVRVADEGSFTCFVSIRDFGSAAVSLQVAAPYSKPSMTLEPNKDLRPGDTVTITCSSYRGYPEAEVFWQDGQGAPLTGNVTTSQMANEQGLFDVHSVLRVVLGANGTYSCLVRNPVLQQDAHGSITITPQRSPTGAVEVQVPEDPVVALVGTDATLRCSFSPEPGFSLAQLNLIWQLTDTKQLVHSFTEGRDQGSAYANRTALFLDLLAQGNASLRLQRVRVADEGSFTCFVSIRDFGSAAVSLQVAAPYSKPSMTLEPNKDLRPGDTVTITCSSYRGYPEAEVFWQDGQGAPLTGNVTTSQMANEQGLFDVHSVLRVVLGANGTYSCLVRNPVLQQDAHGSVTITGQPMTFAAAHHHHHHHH

[4] = biological target: T4, Mouse B7-H3 on cells (mouse, UniProt Q8VE98 29-316); experiment: FACS, 3T12 transfectants
T4 construct: whole, on cells
T4 sequence (looked up): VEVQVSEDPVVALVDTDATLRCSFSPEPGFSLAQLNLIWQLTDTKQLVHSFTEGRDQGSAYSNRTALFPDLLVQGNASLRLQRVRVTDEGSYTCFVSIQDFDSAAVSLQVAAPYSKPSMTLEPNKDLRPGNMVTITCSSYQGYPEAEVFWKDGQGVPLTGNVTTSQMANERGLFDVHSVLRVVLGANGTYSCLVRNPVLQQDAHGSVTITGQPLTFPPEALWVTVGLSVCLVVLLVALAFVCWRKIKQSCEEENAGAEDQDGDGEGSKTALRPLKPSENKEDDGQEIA
Method: (§1) A selection of hits were subcloned using the MoFlo (Beckman, Indianapolis, Ind., US) by depositing a single cell per well into 96 well cell culture plates to ensure clonality of the cell line. Resulting colonies were screened for specificity by FACS using mouse 3T12 fibroblast cell lines expressing the human B7-H3, cynomolgous B7-H3 or mouse B7-H3. Isotype of each monoclonal antibody was determined using the Mouse Monoclonal Isostyping Kit (Roche, No. 11-493-027-001, Indianapolis, Ind., USA).

[5] = biological target: T5, Cynomolgous B7-H3 on cells (cynomolgus); experiment: FACS, 3T12 transfectants
T5 construct: whole, on cells; also called cyB7-H3; cyno B7-H3
Method: as §1

[6] = biological target: T1, Human full length B7-H3; experiment: FACS, 3T12 transfectants
Method: as §1

B1: huAb3v2.6-YG (antibody, human IgG1, kappa, L234A L235A, V domains shown)
VH: EVQLVQSGAEVKKPGSSVKVSCKASGYTFSSYWMHWVRQAPGQGLEWIGLIHPESGSTNYNEMFKNRATLTVDRSTSTAYMELSSLRSEDTAVYYCAGGGRLYFDYWGQGTTVTVSS
VL: DIVMTQSPLSLPVTPGEPASISCRSSQSLVHSNQDTYLRWYLQKPGQSPQLLIYKVSNRFSGVPDRFSGSGSGTDFTLKISRVEAEDVGVYYCSQSTHVPYTFGGGTKVEIKR
modifications: synthon YG on reduced interchain Cys
For B1, the “EC50 nM H1650 (tumor cell cytotoxicity)” value [1] was 0.68 nM.

B2: huAb3v2.6-KZ (antibody, human IgG1, kappa, L234A L235A, V domains shown)
VH: EVQLVQSGAEVKKPGSSVKVSCKASGYTFSSYWMHWVRQAPGQGLEWIGLIHPESGSTNYNEMFKNRATLTVDRSTSTAYMELSSLRSEDTAVYYCAGGGRLYFDYWGQGTTVTVSS
VL: DIVMTQSPLSLPVTPGEPASISCRSSQSLVHSNQDTYLRWYLQKPGQSPQLLIYKVSNRFSGVPDRFSGSGSGTDFTLKISRVEAEDVGVYYCSQSTHVPYTFGGGTKVEIKR
modifications: synthon KZ on reduced interchain Cys
For B2, the “EC50 nM H1650 (tumor cell cytotoxicity)” value [1] was 5.52 nM.

B3: huAb13v1-AAD (antibody, human IgG1, kappa, L234A L235A, V domains shown)
VH: EVQLQESGPGLVKPSETLSLTCAVTGYSITSGYSWHWIRQFPGNGLEWMGYIHSSGSTNYNPSLKSRISISRDTSKNQFFLKLSSVTAADTAVYYCAGYDDYFEYWGQGTTVTVSS
VL: DIQMTQSPSSLSASVGDRVTITCKASQNVGFNVAWYQQKPGKSPKALIYSASYRYSGVPSRFSGSGSGTDFTLTISSLQPEDFAEYFCQQYNWYPFTFGQGTKLEIKR
modifications: synthon AAD on reduced interchain Cys
For B3, the “EC50 nM H1650 (tumor cell cytotoxicity)” value [1] was 0.21 nM.

B4: huAb13v1-WD (antibody, human IgG1, kappa, L234A L235A, V domains shown)
VH: EVQLQESGPGLVKPSETLSLTCAVTGYSITSGYSWHWIRQFPGNGLEWMGYIHSSGSTNYNPSLKSRISISRDTSKNQFFLKLSSVTAADTAVYYCAGYDDYFEYWGQGTTVTVSS
VL: DIQMTQSPSSLSASVGDRVTITCKASQNVGFNVAWYQQKPGKSPKALIYSASYRYSGVPSRFSGSGSGTDFTLTISSLQPEDFAEYFCQQYNWYPFTFGQGTKLEIKR
modifications: synthon WD on reduced interchain Cys
With B4 the “EC50 nM H1650 (tumor cell cytotoxicity)” value [1] was 0.45 nM.

B5: huAb13v1-LB (antibody, human IgG1, kappa, L234A L235A, V domains shown)
VH: EVQLQESGPGLVKPSETLSLTCAVTGYSITSGYSWHWIRQFPGNGLEWMGYIHSSGSTNYNPSLKSRISISRDTSKNQFFLKLSSVTAADTAVYYCAGYDDYFEYWGQGTTVTVSS
VL: DIQMTQSPSSLSASVGDRVTITCKASQNVGFNVAWYQQKPGKSPKALIYSASYRYSGVPSRFSGSGSGTDFTLTISSLQPEDFAEYFCQQYNWYPFTFGQGTKLEIKR
modifications: synthon LB on reduced interchain Cys
For B5, the “EC50 nM H1650 (tumor cell cytotoxicity)” value [1] was > 133 nM.

B6: huAb13v1-ZT (antibody, human IgG1, kappa, L234A L235A, V domains shown)
VH: EVQLQESGPGLVKPSETLSLTCAVTGYSITSGYSWHWIRQFPGNGLEWMGYIHSSGSTNYNPSLKSRISISRDTSKNQFFLKLSSVTAADTAVYYCAGYDDYFEYWGQGTTVTVSS
VL: DIQMTQSPSSLSASVGDRVTITCKASQNVGFNVAWYQQKPGKSPKALIYSASYRYSGVPSRFSGSGSGTDFTLTISSLQPEDFAEYFCQQYNWYPFTFGQGTKLEIKR
modifications: synthon ZT on reduced interchain Cys
For B6, the “EC50 nM H1650 (tumor cell cytotoxicity)” value [1] was 0.3 nM.

B7: huAb13v1-ZZ (antibody, human IgG1, kappa, L234A L235A, V domains shown)
VH: EVQLQESGPGLVKPSETLSLTCAVTGYSITSGYSWHWIRQFPGNGLEWMGYIHSSGSTNYNPSLKSRISISRDTSKNQFFLKLSSVTAADTAVYYCAGYDDYFEYWGQGTTVTVSS
VL: DIQMTQSPSSLSASVGDRVTITCKASQNVGFNVAWYQQKPGKSPKALIYSASYRYSGVPSRFSGSGSGTDFTLTISSLQPEDFAEYFCQQYNWYPFTFGQGTKLEIKR
modifications: synthon ZZ on reduced interchain Cys
In the case of B7, the “EC50 nM H1650 (tumor cell cytotoxicity)” value [1] is reported as 0.42 nM.

B8: Ab4 (antibody, mouse IgG2b, V domains shown)
VH: QVQLQQPGAELVKPGASVKLSCKASGYSFTSYWMHWVKQRPGQGLEWIGMIHPNSGSNNYNEKFKSKATLTVDKSSNTAYMQLSSLTSEDSAVYYCARRLGLHFDYWGQGTTLTVSS
VL: DIVMTQSQKFMSTPVGDRVSITCKASQNVGTAVAWYQQKPGQSPKLLIYSASNRYTGVPDRFTGSGSGTDFTLTISNMQSEDLADYFCQQYSSYPYTFGGGTKLEIK
notes: mouse IgG2b/k
B8 was tested, and the Kd [2] was 1.6 nM, the koff [2] was 0.0011 s⁻¹ and the kon [2] was 690000 M⁻¹ s⁻¹. For the same binder, the Kd [3] was 1.8 nM, the koff [3] was 0.00096 s⁻¹ and the kon [3] was 540000 M⁻¹ s⁻¹. It also gave an EC50 [4] of 1.75 nM, an EC50 [5] of 3.1 nM and an EC50 [6] of 4.06 nM.

B9: Ab18 (antibody, mouse IgG1, V domains shown)
VH: QVQLQQSAAELARPGASVKMSCKASGYSFTSYTIHWVKQRPGQGLEWIGYINPNSRNTDYNQKFKDETTLTADRSSSTAYMQLISLTSEDSAVYYCARYSGSTPYWYFDVWGAGTTVTVSS
VL: QIVLTQSPAILSASPGEKVTMTCRASSSVSYMNWYQQKPGSSPKPWIYATSNLASGVPARFSVSVSGTSHSLTISRVEAEDAATYYCQQWSSNPLTFGAGTKLELK
notes: mouse IgG1/k
B9 showed a Kd [2] of 0.17 nM, a koff [2] of 3.6e-05 s⁻¹ and a kon [2] of 210000 M⁻¹ s⁻¹. It also gave a Kd [3] of 0.12 nM, a koff [3] of 2.9e-05 s⁻¹ and a kon [3] of 240000 M⁻¹ s⁻¹. The binding result [4] was “no binding”, the EC50 [5] was 6.49 nM and the EC50 [6] was 5.98 nM.

B10: Ab8 (antibody, mouse IgG1, V domains shown)
VH: EVKLVESGGGLVKPGGSLKLSCAASGFTFSSYGMSWVRQTPEKRLEWVATISGGGNYTYCPDSVKGRFTISRDNAKNNLYLQMSSLRSEDTALYYCTRQRGYDYHYAMDFWGQGTSVTVSS
VL: DIQMTQSPASLSVSVGETVTITCRASENIYSNLAWHQQKQGKSPQLLVYAATNLADGVPSRFSGNGSDTQYSLKINSLQSEDFGSYFCQNFWGTSWTFGGGTKLEIK
notes: mouse IgG1/k
B10 showed a Kd [2] of 1.7 nM, a koff [2] of 9.9e-05 s⁻¹ and a kon [2] of 58000 M⁻¹ s⁻¹. It also gave a Kd [3] of 1.7 nM, a koff [3] of 0.00026 s⁻¹ and a kon [3] of 160000 M⁻¹ s⁻¹. The EC50 [4] was 193 nM, the EC50 [5] was 8.63 nM and the EC50 [6] was 3.83 nM.

B11: Ab9 (antibody, V domains shown)
VH: QVQLQQSGAEVKKPGSSVKVSCKASGGTFSSYAISWVRQAPGQGLEWMGGIIPILGIANYAQKFQGRVTITADESTSTAYMELSSLRSEDTAVYYCARGGSGSYHMDVWGKGTTVTVSS
VL: EIVLTQSPATLSLSPGERATLSCRASQSVSSYLAWYQQKPGQAPRLLIYDASNRATGIPARFSGSGSGTDFTLTISSLEPEDFAVYYCQQRSNWPPRITFGQGTRLEIKR
With B11 the Kd [2] was 17 nM, the koff [2] was 0.0011 s⁻¹ and the kon [2] was 66000 M⁻¹ s⁻¹. It also gave an EC50 [4] of 0.72 nM, an EC50 [5] of 259 nM and an EC50 [6] of 4.49 nM.

B12: Ab7 (antibody, mouse IgG1, V domains shown)
VH: EVQLVESGENLVKPGGSLKLSCAASGFSFRGYGMSWVRQTPDKRLEWVAAISTGGNYTYYPDSVQGRFTISRDNANNTLYLQMSSLKSEDTAMYYCARRGGNYAGFAYWGQGTLVTVSA
VL: DIQMTQSPASLSVSVGETVTITCRPSENIYSNLAWYQQKQGKSPQLLVYAATNLADGVPSRFSGSGSGTQYSLKINSLQSEDFGTYYCQHFWGTPFTFGSGTKLEIK
notes: mouse IgG1/k
For B12, the binding result [3] was “binds”, the EC50 [4] was 67.1 nM and the EC50 [5] was 2.67 nM. It also gave an EC50 [6] of 3.22 nM.
